We go through 38 sequences from the supplement of paper PMC7877785.

± gives the uncertainty stated by the source.

A short description of the series: self-splicing fitness, log relative to wild type (ln ratio); higher = more splicing; Tetrahymena group I intron in knt gene, E. coli kanamycin selection, DiMSum; sequences stand for … in CUCUCU…GGAGGGAAAAGUUAUCAGGCAUGCACCUGGUAGCUAGUCUUUAAACCAAUAGAUUGCAUCGGUUUAAAAGGCAAGACCGUCAAAUUGCGGGAAAGGGGUCAACAGCCGUUCAGUACCAAGUCUCAGGGGAAACUUUGAGAUGGCCUUGCAAAGGGUAUGGUAAUAAGCUGACGGACAUGGUCCUAACCACGCAGCCAAGUCCUAAGUCAACAGAUCUUCUGUUGAUAUGGAUGCAGUUCACAGACUAAAUGUCGGUCGGGGAAGAUGUAUUCUUCUCAUAAGAUAUAGUCGGACCUCUCCUUAAUGGGAGCUAGCGGAUGAAGUGAUGCAACACUGGAGCCGCUGGGAACUAAUUUGUAUGCGAAAGUAUAUUGAUUAGUUUUGGAGUACUCGUGGUCG
In outline: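 The eight P1ex-region nucleotides of an intron in the knt kanamycin-resistance gene on pET-22b(+) were all randomised and the library put into E. coli BL21(DE3). Six replicate transformations were grown overnight at 37°C or 30°C on LB agar with or without 25 μg/mL kanamycin, together with 100 μg/mL carbenicillin, 50 μM IPTG and 0.2% rhamnose. Colonies were pooled and amplicon-sequenced on an Illumina HiSeq 2500. Fitness from DiMSum is the error-weighted combination of wild-type-normalised replicate fold changes, kanamycin over none.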

Regarding GCAAAGCAAUAUUACGACGC, the “self-splicing fitness (ln)” value was -1.27 ± 0.082 (30 °C) and -1.2 ± 0.11 (37 °C). For UGUCAGCAAUAUUACGAGGC the same measures were -1.97 ± 0.26 and -3.1 ± 0.32.

As to GUCGAGCAAUAUUACGCGCU, the “self-splicing fitness (ln)” value is, setting by setting: (30 °C) -2.6 ± 0.3; (37 °C) -1.17 ± 0.32. On to CCCCAGCAAUAUUACGACAA, for which the “self-splicing fitness (ln)” value (37 °C) was -2.78 ± 0.28.

For the sequence GCCUAGCAAUAUUACGGACG, the “self-splicing fitness (ln)” value was -1.98 ± 0.2 (30 °C) and -0.148 ± 0.18 (37 °C). For GCAAAGCAAUAUUACGUCGU the same measures were -2.22 ± 0.095 and -2.27 ± 0.15. Turning to UUUAAGCAAUAUUACGGCUU, the “self-splicing fitness (ln)” value is -1.8 ± 0.14 (30 °C) and -1.86 ± 0.27 (37 °C). Consider GAAUAGCAAUAUUACGCCGG, for which the “self-splicing fitness (ln)” value runs as follows: (30 °C) -2.65 ± 0.32; (37 °C) -1.79 ± 0.24. As to GCGAAGCAAUAUUACGCGUA, the “self-splicing fitness (ln)” value is -2.03 ± 0.16 (30 °C) and -0.565 ± 0.13 (37 °C).

Turning to CUUUAGCAAUAUUACGUCAC, under “37 °C”, the “self-splicing fitness (ln)” value is -0.481 ± 0.4. Same read-out and setting: the value for UUUGAGCAAUAUUACGCAGA was -1.51 ± 0.32.

On to AAUCAGCAAUAUUACGUUGG, for which the “self-splicing fitness (ln)” value reads like this: (30 °C) -2.06 ± 0.1; (37 °C) -1 ± 0.1. Consider CGCAAGCAAUAUUACGAAGC, for which the “self-splicing fitness (ln)” value runs as follows: (30 °C) -2.55 ± 0.13; (37 °C) -3.1 ± 0.19. For CUGAAGCAAUAUUACGGUCG, the “self-splicing fitness (ln)” value is 0.651 ± 0.072 (30 °C) and -0.32 ± 0.082 (37 °C). AGUAAGCAAUAUUACGUAUG: the “self-splicing fitness (ln)” value is -2.94 ± 0.29 (30 °C) and -2.15 ± 0.24 (37 °C). For UUUUAGCAAUAUUACGACUG the same measures were -0.652 ± 0.097 and -0.152 ± 0.13. For GUGUAGCAAUAUUACGCUUA the same measures were -1.45 ± 0.29 and 0.408 ± 0.25. For CCAUAGCAAUAUUACGUGAC the same measures were -2.57 ± 0.13 and -2.79 ± 0.3. As to AAAAAGCAAUAUUACGUGGC, the “self-splicing fitness (ln)” value (30 °C) is -3.59 ± 0.21 and the “self-splicing fitness (ln)” value (37 °C) was -1.59 ± 0.14. In the same order, the values of CAUAAGCAAUAUUACGAGGC are -3.54 ± 0.35 and -2.24 ± 0.35. On to CGGCAGCAAUAUUACGCCCU, for which the “self-splicing fitness (ln)” value runs as follows: (30 °C) -1.01 ± 0.39; (37 °C) 0.318 ± 0.29. Consider CUUGAGCAAUAUUACGCGUG, for which the “self-splicing fitness (ln)” value reads like this: (30 °C) -2.84 ± 0.18; (37 °C) -0.143 ± 0.11.

On to ACGCAGCAAUAUUACGAAUU, for which the “self-splicing fitness (ln)” value is -4.01 ± 0.23 (30 °C) and -1.48 ± 0.1 (37 °C).

Regarding GCAUAGCAAUAUUACGCAAC, the “self-splicing fitness (ln)” value was -3.96 ± 0.33 (30 °C) and -2.6 ± 0.37 (37 °C). Take UUCCAGCAAUAUUACGUGCU: the “self-splicing fitness (ln)” value is -4.4 ± 0.34 (30 °C) and -3.29 ± 0.29 (37 °C). For ACACAGCAAUAUUACGGGGC, the “self-splicing fitness (ln)” value by setting is: (30 °C) -2.8 ± 0.16; (37 °C) -3.16 ± 0.19. In the same order, the values of UAUCAGCAAUAUUACGAGGU are -2.73 ± 0.28 and -3.78 ± 0.37.

Consider GACAAGCAAUAUUACGUAGU, for which the “self-splicing fitness (ln)” value was -3.92 ± 0.18 (30 °C) and -1.65 ± 0.11 (37 °C). For GACUAGCAAUAUUACGAUCG the same measures were -1.24 ± 0.13 and -0.31 ± 0.21. For GGAGAGCAAUAUUACGAGAC the same measures were -2.12 ± 0.22 and -1.88 ± 0.35. For AUGGAGCAAUAUUACGGCAU the same measures were -0.641 ± 0.16 and -0.53 ± 0.16. For the sequence AGCAAGCAAUAUUACGACUA, the “self-splicing fitness (ln)” value (30 °C) is -0.478 ± 0.11 and the “self-splicing fitness (ln)” value (37 °C) is -0.326 ± 0.13. UUCGAGCAAUAUUACGGCAG: the “self-splicing fitness (ln)” value was -2.05 ± 0.17 (30 °C) and -1.39 ± 0.19 (37 °C). On to AAGCAGCAAUAUUACGCUUC, for which the “self-splicing fitness (ln)” value runs as follows: (30 °C) -2.97 ± 0.18; (37 °C) -2.81 ± 0.26. In the same order, the values of GACGAGCAAUAUUACGUACU are -1.64 ± 0.18 and -0.775 ± 0.14. Consider UACAAGCAAUAUUACGUCAA, for which the “self-splicing fitness (ln)” value (30 °C) was -3.18 ± 0.2 and the “self-splicing fitness (ln)” value (37 °C) is -1.67 ± 0.13. In the same order, the values of AAGGAGCAAUAUUACGAUUC are -1.13 ± 0.19 and -1.78 ± 0.48.

Consider UAGAAGCAAUAUUACGCUUC, for which the “self-splicing fitness (ln)” value reads like this: (30 °C) -2.27 ± 0.18; (37 °C) -2.81 ± 0.22.
